Substrate in assay [1]: S protein of a SARS-CoV-2 delta lineage virus on pseudotyped virus (SARS-CoV-2 (delta lineage))
The experiment in a line: cell-based or functional assay.

The target in assay [2] is T1, SARS CoV-2 spike trimer protein from the parental Wuhan-Hu-1 isolate (extracellular domain, furin-cl (SARS-CoV-2 (Wuhan-Hu-1))). In words: ELISA, spike protein coated, IgG detected with anti-human Fc-HRP. Particulars: remark: other sources report otherwise. In general terms: In an ELISA, binding on a coated surface is turned into a signal by an enzyme label.
The target of assay [3] is T1, SARS CoV-2 spike trimer protein from …. Particulars: remark: other sources report otherwise.
For assay [4] the target is unchanged. The following applies: remark: other sources report otherwise. The source holds these as a separate data set.
In assay [5] the target is recombinant stabilized spike protein derived from the beta strain (formerly described as the South A (SARS-CoV-2 (B.1.351)), P0DTC2). The following applies: remark: other sources report otherwise.

Like-named read-outs stand apart in the source and are kept apart here.

B1: purified R2G3 CDR3-knob (after enterokinase cleavage from trxA) (peptide)
peptide: EGDKTCPDGYEHTCGCIGGCGCKRSACIGALCCQASLGGWLSDGETYTYEF
modifications: not checked
In the case of B1, in assay [1], the pseudovirus neutralization, ng/mL (quantity not given) came to 302 ng/mL.

B2: R2D9 CDR3-knob (peptide)
peptide: ITHKTCPNGYNWFDRCCSWDGTCGDGCCSNRAWPSGNGRADSSIGETYGYEF
modifications: not checked
On to B2, for which, in assay [1], the pseudovirus neutralization, ng/mL (quantity not given) came out at 66.8 ng/mL.

B3: SKM ultralong CDR3 chimeric bovine-human IgG1 antibody (antibody)
VH: QVQLRESGPSLVKPSQTLSLTCTASGFSLSDKAVGWVRQAPGKALEWLGSIDTGGNTGYNPGLKSRLSITKDNSKSQVSLSVSSVTTEDSATYYCTTVHQETLRSCPDGYIDNSGCTADWGCAALDCWRRRFGYHSTDPSHYTGATYIYTYSLHIDAWGQGLLVTVSS
VL: QAVLNQPSSVSGSLGQRVSITCSGSSSNVGNGYVSWYQLIPGSAPRTLIYGDTSRASGVPDRFSGSRSGNTATLTISSLQAEDEADYFCASAEDSSSNAVFGSGTTLTVL
Consider B3, for which, in assay [2], the EC50 – broadly, the concentration at which the effect is half-maximal – is 0.19 nM. For the same molecule, the concentration for a half-maximal effect (EC50 (read off the curve)) – broadly, the concentration needed to bring the measured effect to its halfway point – in assay [3] was 0.2 nM.

B4: SKD ultralong CDR3 chimeric bovine-human IgG1 antibody (antibody)
VH: QVQLRESGPSLVKPSQTLSLTCTASGFSLSDKAVGWVRQAPGKALEWLGSIDTGGNTGYNPGLKSRLSITKDNSKSQVSLSVSSVTTEDSATYYCTTVHQRTSEKRSCPGGSSRRYPSGASCDVSGGACACYVSNCRGVLCPTLNEIVAYTYEWHVDAWGQGLLVTVSS
VL: QAVLNQPSSVSGSLGQRVSITCSGSSSNVGNGYVSWYQLIPGSAPRTLIYGDTSRASGVPDRFSGSRSGNTATLTISSLQAEDEADYFCASAEDSSSNAVFGSGTTLTVL
On to B4, for which the EC50 in assay [2] came to 0.16 nM.

B5: R4C1 ultralong CDR3 chimeric bovine-human IgG1 antibody (antibody)
VH: QVQLRESGPSLVKPSQTLSLTCTASGFSLSDKAVGWVRQAPGKPLEWLGSIDTAENTGYNPGLKSRLSITKDNSKSQVSLSVSSVTTEDSATYYCATVHQKTRKEKNCPDGYIYSSNTASGYDCGVWICRRVGSAFCSRTGDYTSPSEFDIYEFYVEGWGQGLLVTVSS
VL: QAVLNQPSSVSGSLGQRVSITCSGSSSNVGNGYVSWYQLIPGSAPRTLIYGDTSRASGVPDRFSGSRSGNTATLTISSLQAEDEADYFCASAEDSSSNAVFGSGTTLTVL
On to B5, for which the EC50 in assay [2] came to 0.2 nM. Further, the values for the EC50 (read off the curve) in assay [4], in assay [5] and in assay [3] were 0.03 nM, 0.3 nM and 0.3 nM, respectively.

The record behind these values is patent US20240262893A1.
